Substitutions are numbered along the chain they refer to.
B1: GCH099-G1dh/none-Hi-Kn010G3/L0201-k0 (antibody, human IgG1, kappa)
heavy: not shown
chain: EPKSSDKTHTCPPCPAPELLGGPSVFLFPPKPKDTLMISRTPEVTCVVVDVSHEDPEVKFNWYVDGVEVHNAKTKPREEQYNSTYRVVSVLTVLHQDWLNGKEYKCKVSNKALPAPIEKTISKAKGQPREPQVCTLPPSRDELTKNQVSLWCLVKGFYPSDIAVEWESNGQPENNYKTTPPVLDSDGSFFLYSKLTVDKSRWQQGNVFSCSVMHEALHNRYTQKSLSLSP
light: DIVMTQSPLSLPVTPGEPASISCRSSQPPVHSNRNTYLHWYQQKPGQAPRLLIYKVSNRFSGVPDRFSGSGSGTDFTLKISRVEAEDVGVYYCGQGTQVPYTFGQGTKLEIKRTVAAPSVFIFPPSDEQLKSGTASVVCLLNNFYPREAKVQWKVDNALQSGNSQESVTEQDSKDSTYSLSSTLTLSKADYEKHKVYACEVTHQGLSSPVTKSFNRGEC
notes: single-arm (one Fab)
B2: H0610-G1dh/none-Hi-Kn010G3/L0115-k0 (antibody, human IgG1, kappa)
heavy: not shown
chain: B1 chain
light: B1 light with P28S, P29L, N58W
notes: single-arm (one Fab)
B3: H0610-G1dh/none-Hi-Kn010G3/L0079-k0 (antibody, human IgG1, kappa)
heavy: not shown
chain: B1 chain
light: B1 light with P28S, P29L, L38I
notes: single-arm (one Fab)
B4: GCH100-G1dh/none-Hi-Kn010G3/L0011-k0 (antibody, human IgG1, kappa)
heavy: not shown
chain: B1 chain
light: B1 light with P29L
notes: single-arm (one Fab)
B5: H0610-G1dh/none-Hi-Kn010G3/L0044-k0 (antibody, human IgG1, kappa)
heavy: not shown
chain: B1 chain
light: B1 light with P28S, P29L, S32P
notes: single-arm (one Fab)
B6: H0610-G1dh/none-Hi-Kn010G3/L0127-k0 (antibody, human IgG1, kappa)
heavy: not shown
chain: B1 chain
light: B1 light with P28S, P29L, F60P
notes: single-arm (one Fab)
B7: H0610-G1dh/none-Hi-Kn010G3/L0122-k0 (antibody, human IgG1, kappa)
heavy: not shown
chain: B1 chain
light: B1 light with P28S, P29L, F60I
notes: single-arm (one Fab)
B8: H0610-G1dh/none-Hi-Kn010G3/L0045-k0 (antibody, human IgG1, kappa)
heavy: not shown
chain: B1 chain
light: B1 light with P28S, P29L, S32Q
notes: single-arm (one Fab)
B9: H0610-G1dh/none-Hi-Kn010G3/L0143-k0 (antibody, human IgG1, kappa)
heavy: not shown
chain: B1 chain
light: B1 light with P28S, P29L, S61P
notes: single-arm (one Fab)
B10: H0610-G1dh/none-Hi-Kn010G3/L0093-k0 (antibody, human IgG1, kappa)
heavy: not shown
chain: B1 chain
light: B1 light with P28S, P29L, H39Q
notes: single-arm (one Fab)
B11: H0610-G1dh/none-Hi-Kn010G3/L0006-k0 (antibody, human IgG1, kappa)
heavy: not shown
chain: B1 chain
light: B1 light with S25P, P28S, P29L
notes: single-arm (one Fab)
B12: H0610-G1dh/none-Hi-Kn010G3/L0003-k0 (antibody, human IgG1, kappa)
heavy: not shown
chain: B1 chain
light: B1 light with S25I, P28S, P29L
notes: single-arm (one Fab)
B13: H0610-G1dh/none-Hi-Kn010G3/L0151-k0 (antibody, human IgG1, kappa)
heavy: not shown
chain: B1 chain
light: B1 light with P28S, P29L, G94E
notes: single-arm (one Fab)
B14: H0610-G1dh/none-Hi-Kn010G3/L0064-k0 (antibody, human IgG1, kappa)
heavy: not shown
chain: B1 chain
light: B1 light with P28S, P29L, N35F
notes: single-arm (one Fab)
B15: H0610-G1dh/none-Hi-Kn010G3/L0148-k0 (antibody, human IgG1, kappa)
heavy: not shown
chain: B1 chain
light: B1 light with P28S, P29L, S61W
notes: single-arm (one Fab)
B16: H0610-G1dh/none-Hi-Kn010G3/L0038-k0 (antibody, human IgG1, kappa)
heavy: not shown
chain: B1 chain
light: B1 light with P28S, P29L, S32F
notes: single-arm (one Fab)
B17: H0610-G1dh/none-Hi-Kn010G3/L0015-k0 (antibody, human IgG1, kappa)
heavy: not shown
chain: B1 chain
light: B1 light with P28S
notes: single-arm (one Fab)
B18: H0610-G1dh/none-Hi-Kn010G3/L0107-k0 (antibody, human IgG1, kappa)
heavy: not shown
chain: B1 chain
light: B1 light with P28S, P29L, N58I
notes: single-arm (one Fab)
B19: H0610-G1dh/none-Hi-Kn010G3/L0011-k0 (antibody, human IgG1, kappa)
heavy: not shown
chain: B1 chain
light: B1 light with P29L
notes: single-arm (one Fab)
B20: H0610-G1dh/none-Hi-Kn010G3/L0008-k0 (antibody, human IgG1, kappa)
heavy: not shown
chain: B1 chain
light: B1 light with S25V, P28S, P29L
notes: single-arm (one Fab)
B21: H0610-G1dh/none-Hi-Kn010G3/L0042-k0 (antibody, human IgG1, kappa)
heavy: not shown
chain: B1 chain
light: B1 light with P28S, P29L, S32M
notes: single-arm (one Fab)
B22: H0610-G1dh/none-Hi-Kn010G3/L0124-k0 (antibody, human IgG1, kappa)
heavy: not shown
chain: B1 chain
light: B1 light with P28S, P29L, F60L
notes: single-arm (one Fab)
B23: H0610-G1dh/none-Hi-Kn010G3/L0013-k0 (antibody, human IgG1, kappa)
heavy: not shown
chain: B1 chain
light: B1 light with P28S, P29I
notes: single-arm (one Fab)
B24: H0610-G1dh/none-Hi-Kn010G3/L0014-k0 (antibody, human IgG1, kappa)
heavy: not shown
chain: B1 chain
light: B1 light with P28S, P29M
notes: single-arm (one Fab)
B25: H0610-G1dh/none-Hi-Kn010G3/L0012-k0 (antibody, human IgG1, kappa)
heavy: not shown
chain: B1 chain
light: B1 light with P28S, P29F
notes: single-arm (one Fab)
B26: H0610-G1dh/none-Hi-Kn010G3/L0075-k0 (antibody, human IgG1, kappa)
heavy: not shown
chain: B1 chain
light: B1 light with P28S, P29L, N35W
notes: single-arm (one Fab)
B27: H0610-G1dh/none-Hi-Kn010G3/L0085-k0 (antibody, human IgG1, kappa)
heavy: not shown
chain: B1 chain
light: B1 light with P28S, P29L, H39E
notes: single-arm (one Fab)
B28: H0610-G1dh/none-Hi-Kn010G3/L0007-k0 (antibody, human IgG1, kappa)
heavy: not shown
chain: B1 chain
light: B1 light with S25T, P28S, P29L
notes: single-arm (one Fab)
B29: H0610-G1dh/none-Hi-Kn010G3/L0039-k0 (antibody, human IgG1, kappa)
heavy: not shown
chain: B1 chain
light: B1 light with P28S, P29L, S32H
notes: single-arm (one Fab)
B30: H0610-G1dh/none-Hi-Kn010G3/L0141-k0 (antibody, human IgG1, kappa)
heavy: not shown
chain: B1 chain
light: B1 light with P28S, P29L, S61M
notes: single-arm (one Fab)
B31: H0610-G1dh/none-Hi-Kn010G3/L0129-k0 (antibody, human IgG1, kappa)
heavy: not shown
chain: B1 chain
light: B1 light with P28S, P29L, F60R
notes: single-arm (one Fab)
B32: H0610-G1dh/none-Hi-Kn010G3/L0140-k0 (antibody, human IgG1, kappa)
heavy: not shown
chain: B1 chain
light: B1 light with P28S, P29L, S61L
notes: single-arm (one Fab)
B33: H0610-G1dh/none-Hi-Kn010G3/L0082-k0 (antibody, human IgG1, kappa)
heavy: not shown
chain: B1 chain
light: B1 light with P28S, P29L, L38V
notes: single-arm (one Fab)
B34: H0610-G1dh/none-Hi-Kn010G3/L0032-k0 (antibody, human IgG1, kappa)
heavy: not shown
chain: B1 chain
light: B1 light with P28S, P29L, H31R
notes: single-arm (one Fab)
B35: H0610-G1dh/none-Hi-Kn010G3/L0065-k0 (antibody, human IgG1, kappa)
heavy: not shown
chain: B1 chain
light: B1 light with P28S, P29L, N35G
notes: single-arm (one Fab)
B36: H0610-G1dh/none-Hi-Kn010G3/L0090-k0 (antibody, human IgG1, kappa)
heavy: not shown
chain: B1 chain
light: B1 light with P28S, P29L, H39M
notes: single-arm (one Fab)
B37: H0610-G1dh/none-Hi-Kn010G3/L0009-k0 (antibody, human IgG1, kappa)
heavy: not shown
chain: B1 chain
light: B1 light with S26P, P28S, P29L
notes: single-arm (one Fab)
B38: H0610-G1dh/none-Hi-Kn010G3/L0002-k0 (antibody, human IgG1, kappa)
heavy: not shown
chain: B1 chain
light: B1 light with S25A, P28S, P29L
notes: single-arm (one Fab)
B39: H0610-G1dh/none-Hi-Kn010G3/L0047-k0 (antibody, human IgG1, kappa)
heavy: not shown
chain: B1 chain
light: B1 light with P28S, P29L, S32W
notes: single-arm (one Fab)
B40: H0610-G1dh/none-Hi-Kn010G3/L0041-k0 (antibody, human IgG1, kappa)
heavy: not shown
chain: B1 chain
light: B1 light with P28S, P29L, S32L
notes: single-arm (one Fab)
B41: GCH100-G1dh/none-Hi-Kn010G3/L0201-k0 (antibody, human IgG1, kappa)
heavy: not shown
chain: B1 chain
light: B1 light
notes: single-arm (one Fab)
B42: H0610-G1dh/none-Hi-Kn010G3/L0016-k0 (antibody, human IgG1, kappa)
heavy: not shown
chain: B1 chain
light: B1 light with P28S, P29V
notes: single-arm (one Fab)
B43: H0610-G1dh/none-Hi-Kn010G3/L0145-k0 (antibody, human IgG1, kappa)
heavy: not shown
chain: B1 chain
light: B1 light with P28S, P29L, S61R
notes: single-arm (one Fab)
B44: H0610-G1dh/none-Hi-Kn010G3/L0149-k0 (antibody, human IgG1, kappa)
heavy: not shown
chain: B1 chain
light: B1 light with P28S, P29L, G94A
notes: single-arm (one Fab)
B45: H0610-G1dh/none-Hi-Kn010G3/L0125-k0 (antibody, human IgG1, kappa)
heavy: not shown
chain: B1 chain
light: B1 light with P28S, P29L, F60M
notes: single-arm (one Fab)
B46: H0610-G1dh/none-Hi-Kn010G3/L0066-k0 (antibody, human IgG1, kappa)
heavy: not shown
chain: B1 chain
light: B1 light with P28S, P29L, N35H
notes: single-arm (one Fab)
B47: H0610-G1dh/none-Hi-Kn010G3/L0134-k0 (antibody, human IgG1, kappa)
heavy: not shown
chain: B1 chain
light: B1 light with P28S, P29L, F60Y
notes: single-arm (one Fab)

Target: T1, soluble human GPC3 (human, UniProt P51654 25-563, limits assumed)
T1 construct: soluble human GPC3 as analyte; also called glypican 3
T1 sequence (P51654 other isoform, or with tags, fused parts or gaps limits assumed, form in doubt): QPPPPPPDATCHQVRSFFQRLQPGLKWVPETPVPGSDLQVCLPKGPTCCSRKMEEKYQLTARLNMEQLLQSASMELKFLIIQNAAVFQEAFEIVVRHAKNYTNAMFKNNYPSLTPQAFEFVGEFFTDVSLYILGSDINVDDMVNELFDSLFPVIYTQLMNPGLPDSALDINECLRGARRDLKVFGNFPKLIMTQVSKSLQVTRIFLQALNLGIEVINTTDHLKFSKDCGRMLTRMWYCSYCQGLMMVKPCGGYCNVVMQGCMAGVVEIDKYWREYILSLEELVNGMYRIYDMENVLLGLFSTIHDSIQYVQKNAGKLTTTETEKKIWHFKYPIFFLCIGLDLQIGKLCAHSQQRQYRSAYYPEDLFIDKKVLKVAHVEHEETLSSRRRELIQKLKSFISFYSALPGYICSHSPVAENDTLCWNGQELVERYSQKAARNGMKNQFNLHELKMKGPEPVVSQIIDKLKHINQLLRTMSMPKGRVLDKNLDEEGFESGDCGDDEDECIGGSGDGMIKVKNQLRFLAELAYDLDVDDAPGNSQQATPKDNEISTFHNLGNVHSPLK
Assay: SPR (Biacore), soluble human GPC3

| Binder | Kd |
| --- | --- |
| B1 | 1.29 nM |
| B2 | 4.34 nM |
| B3 | 4.23 nM |
| B4 | 3.81 nM |
| B5 | 4.57 nM |
| B6 | 3.12 nM |
| B7 | 2.42 nM |
| B8 | 4.66 nM |
| B9 | 0.573 nM |
| B10 | 0.106 nM |
| B11 | 3.04 nM |
| B12 | 4.01 nM |
| B13 | 1.25 nM |
| B14 | 3.37 nM |
| B15 | 3.28 nM |
| B16 | 2.75 nM |
| B17 | 1.31 nM |
| B18 | 4.38 nM |
| B19 | 2.76 nM |
| B20 | 3.3 nM |
| B21 | 4.27 nM |
| B22 | 0.972 nM |
| B23 | 3.35 nM |
| B24 | 1.82 nM |

| Binder | Kd |
| --- | --- |
| B25 | 1.55 nM |
| B26 | 2.85 nM |
| B27 | 1.17 nM |
| B28 | 4.39 nM |
| B29 | 3.41 nM |
| B30 | 3.86 nM |
| B31 | 4.54 nM |
| B32 | 3.38 nM |
| B33 | 3.43 nM |
| B34 | 3.72 nM |
| B35 | 4.79 nM |
| B36 | 1.12 nM |
| B37 | 2.99 nM |
| B38 | 4.43 nM |
| B39 | 2.23 nM |
| B40 | 4.85 nM |
| B41 | 1.37 nM |
| B42 | 4.44 nM |
| B43 | 2.66 nM |
| B44 | 2.16 nM |
| B45 | 1.71 nM |
| B46 | 4.2 nM |
| B47 | 2.53 nM |

From patent US20210388110A1 (published 2021)
